Measurements: patent US20230322924A1 (Janssen / Centocor, published 2023)

What was measured:
[1] = molecular target: T1, Cynomolgous monkey PSMA, full length, on HEK293F cells (Macaca fascicularis (cynomolgus monkey)); test: flow cytometry, Fab supernatant, cyno PSMA HEK cells
T1 construct: stably transfected HEK293F cells; also called cyno PSMA; Cyno-PSMA HEK
T1 chain: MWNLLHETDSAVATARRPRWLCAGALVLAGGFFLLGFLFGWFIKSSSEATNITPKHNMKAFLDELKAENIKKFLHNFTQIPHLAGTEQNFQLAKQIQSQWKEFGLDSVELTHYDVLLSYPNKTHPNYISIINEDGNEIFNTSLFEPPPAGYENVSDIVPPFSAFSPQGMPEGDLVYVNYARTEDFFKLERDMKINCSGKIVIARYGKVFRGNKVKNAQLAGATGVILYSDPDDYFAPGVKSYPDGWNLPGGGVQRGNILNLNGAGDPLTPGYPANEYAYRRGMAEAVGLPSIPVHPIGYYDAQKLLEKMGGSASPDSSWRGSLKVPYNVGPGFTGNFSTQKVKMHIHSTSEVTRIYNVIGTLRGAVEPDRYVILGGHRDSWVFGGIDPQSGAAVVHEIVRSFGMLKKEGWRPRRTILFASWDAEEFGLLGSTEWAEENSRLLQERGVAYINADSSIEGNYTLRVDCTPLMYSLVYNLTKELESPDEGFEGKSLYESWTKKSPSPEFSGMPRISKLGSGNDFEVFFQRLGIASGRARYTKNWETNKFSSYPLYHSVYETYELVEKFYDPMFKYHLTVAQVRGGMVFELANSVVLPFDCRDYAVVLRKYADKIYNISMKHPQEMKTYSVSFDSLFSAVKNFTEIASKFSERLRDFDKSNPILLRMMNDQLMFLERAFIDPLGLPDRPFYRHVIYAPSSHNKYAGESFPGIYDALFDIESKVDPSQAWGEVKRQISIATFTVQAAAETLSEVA
Protocol: (§1) Individual Fab clones were isolated from the round 3 output of all panning experiments following pIX excision. Fab clones were tested for binding to chimp and cyno PSMA expressing HEK cells, as well as to human PSMA on LNCaP cells. Briefly, PSMA expressing cells were aliquoted into a V-bottom plate (CoStar 3357) at a density of 200,000 per well and incubated with (100 μl) supernatants expressing Fab fragments for 1 hour on ice. Cells were washed twice with PBS containing 2% FBS, and stained with a mouse anti-human kappa-RPE antibody (Life Technologies cat #MH10514) for 1 hour on ice. Cells were washed twice with PBS containing 2% FBS and resuspended in […] of the same wash buffer. Plates were read on a BD FACS Array flow cytometer. FACS data was analyzed in FlowJo software by live gating the healthy population of cells using forward scatter and side scatter, and then analyzing the cells within this gate for PE staining. Mean fluorescence intensity (MFI) was calculated and exported into Microsoft Excel. […] Fabs were sequenced and moved forward for cloning into mammalian expression vector for rescreening. True positives were selected from the binding of mammalian cell expressed Fab supernatants to PSMA-expressing cell lines.
(§2) Confirmation of mammalian expressed Fab supernatants was performed using the whole cell binding assay described previously. Binding of Fabs to human PSMA (LNCaP), chimpanzee, and cynomolgous monkey cells was tested, as well as counter screening for no binding to the parental HEK cell line.

[2] = molecular target: T2, chimpanzee PSMA, full length, on HEK293F cells (Pan troglodytes (chimpanzee)); test: flow cytometry, Fab supernatant, chimp PSMA HEK cells
T2 construct: stably transfected HEK293F cells; also called chimp PSMA; chimp-PSMA HEK
T2 chain: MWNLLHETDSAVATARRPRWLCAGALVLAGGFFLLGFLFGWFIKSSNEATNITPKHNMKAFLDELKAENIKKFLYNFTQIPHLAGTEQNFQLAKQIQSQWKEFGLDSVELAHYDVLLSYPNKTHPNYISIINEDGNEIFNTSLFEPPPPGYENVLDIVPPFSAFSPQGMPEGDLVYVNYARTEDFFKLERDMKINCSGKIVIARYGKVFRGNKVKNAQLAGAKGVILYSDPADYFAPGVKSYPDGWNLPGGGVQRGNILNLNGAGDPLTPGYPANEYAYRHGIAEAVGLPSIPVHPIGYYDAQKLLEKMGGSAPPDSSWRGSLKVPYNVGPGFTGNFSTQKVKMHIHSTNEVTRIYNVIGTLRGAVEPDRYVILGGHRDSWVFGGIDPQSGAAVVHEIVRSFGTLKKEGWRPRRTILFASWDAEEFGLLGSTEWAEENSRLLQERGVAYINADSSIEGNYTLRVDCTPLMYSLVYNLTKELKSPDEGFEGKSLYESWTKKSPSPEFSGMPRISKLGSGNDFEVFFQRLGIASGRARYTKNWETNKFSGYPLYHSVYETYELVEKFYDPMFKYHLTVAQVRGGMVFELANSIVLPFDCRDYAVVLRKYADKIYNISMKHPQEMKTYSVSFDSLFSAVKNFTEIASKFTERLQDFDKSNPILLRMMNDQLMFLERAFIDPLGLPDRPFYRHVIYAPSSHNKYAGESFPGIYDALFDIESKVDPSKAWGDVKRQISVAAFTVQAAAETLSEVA
Protocol: as §1, §2

[3] = molecular target: T3, human PSMA on LNCaP cells (human, UniProt Q04609 1-750); test: flow cytometry, Fab supernatant, LNCaP cells
T3 construct: PSMA of the LNCaP prostate cancer cell line itself
Protocol: as §1, with “A cell-based binding assay was designed to assess the binding capabilities of individual Fab-his fusions from E. coli supernatants to PSMA-expressing cells. Individual” for “Individual”
as §2

Human CD33 full length = Human CD33 full length (human, UniProt P20138 18-364); test: cell-based or functional assay
Sequence of Human CD33 full length (P20138 18-364 limits assumed): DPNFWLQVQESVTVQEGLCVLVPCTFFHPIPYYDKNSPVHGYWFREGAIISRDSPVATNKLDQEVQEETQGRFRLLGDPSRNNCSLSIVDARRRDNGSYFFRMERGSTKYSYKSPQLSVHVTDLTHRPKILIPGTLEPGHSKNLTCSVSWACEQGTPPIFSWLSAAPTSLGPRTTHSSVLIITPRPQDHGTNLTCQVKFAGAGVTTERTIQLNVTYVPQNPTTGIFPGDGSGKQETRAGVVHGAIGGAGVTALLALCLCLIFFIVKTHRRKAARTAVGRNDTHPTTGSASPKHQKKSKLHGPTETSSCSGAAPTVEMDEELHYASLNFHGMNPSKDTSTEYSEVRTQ

T3 sequence (Q04609 whole entry): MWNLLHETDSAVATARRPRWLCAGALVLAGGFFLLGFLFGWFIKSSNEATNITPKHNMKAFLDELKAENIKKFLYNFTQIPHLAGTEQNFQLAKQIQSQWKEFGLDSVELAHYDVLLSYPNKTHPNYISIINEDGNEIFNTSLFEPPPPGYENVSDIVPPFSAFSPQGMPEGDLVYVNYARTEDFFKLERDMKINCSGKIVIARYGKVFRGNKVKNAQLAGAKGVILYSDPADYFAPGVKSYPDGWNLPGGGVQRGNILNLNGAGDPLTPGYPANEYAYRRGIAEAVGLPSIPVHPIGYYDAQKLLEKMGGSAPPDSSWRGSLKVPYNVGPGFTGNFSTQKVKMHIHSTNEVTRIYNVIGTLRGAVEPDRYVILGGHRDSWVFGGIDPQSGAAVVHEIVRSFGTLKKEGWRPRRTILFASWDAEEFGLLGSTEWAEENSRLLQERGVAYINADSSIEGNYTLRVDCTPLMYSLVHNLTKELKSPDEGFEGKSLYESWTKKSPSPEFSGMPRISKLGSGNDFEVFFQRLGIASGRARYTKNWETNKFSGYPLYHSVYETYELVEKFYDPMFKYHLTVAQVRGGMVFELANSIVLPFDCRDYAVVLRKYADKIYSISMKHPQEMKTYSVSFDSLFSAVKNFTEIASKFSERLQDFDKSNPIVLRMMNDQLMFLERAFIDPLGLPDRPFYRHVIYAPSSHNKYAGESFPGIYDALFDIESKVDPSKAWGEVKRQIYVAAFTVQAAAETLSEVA

B1: PSMB86 (Fab, V domains shown)
VH: QVQLVQSGAEVKKPGSSVKVSCKASGGTFKSYDISWVRQAPGQGLEWMGGIIPIEGTANYAQKFQGRVTITADESTSTAYMELSSLRSEDTAVYYCARDYPAGYGFDYWGQGTLVTVSS
VL: not shown
notes: mammalian-expressed Fab supernatant (huG1 Fab and human kappa vectors); also called PSMM87
B1 showed a Geo-MFI [1] of 224, a Geo-MFI [2] of 176 and a Geo-MFI [3] of 31.7.

B2: PSMB84 (Fab, V domains shown)
VH: EVQLLESGGGLVQPGGSLRLSCAASGFTFDSDWMSWVRQAPGKGLEWVSAISGNGGSTEYADSVKGRFTISRDNSKNTLYLQMNSLRAEDTAVYYCARDPYYYYDGDSYYGMDVWGQGTLVTVSS
VL: not shown
notes: mammalian-expressed Fab supernatant (huG1 Fab and human kappa vectors); also called PSMM85
Work on B2 yielded a Geo-MFI [1] of 750, a Geo-MFI [2] of 729 and a Geo-MFI [3] of 192.

B3: PSMB80 (Fab, V domains shown)
VH: QVQLVQSGAEVKKPGSSVKVSCKASGGTFDDYAISWVRQAPGQGLEWMGRIDPIEGTANYAQKFQGRVTITADESTSTAYMELSSLRSEDTAVYYCARDRYYYDGVYWYSDYFDYWGQGTLVTVS
VL: not shown
notes: mammalian-expressed Fab supernatant (huG1 Fab and human kappa vectors); also called PSMM81
B3 gave a Geo-MFI [1] of 19.6, a Geo-MFI [2] of 18.6 and a Geo-MFI [3] of 20.9.

B4: PSMB55 (Fab, V domains shown)
VH: EVQLVQSGAEVKKPGESLKISCKGSGYSFTSYWIGWVRQMPGKGLEWMGIIYPGDSDTRYSPSFQGQVTISADKSISTAYLQWSSLKASDTAMYYCARGLPIWYLDYWGQGTLVTVSS
VL: EIVLTQSPATLSLSPGERATLSCRASQSVASDLAWYQQKPGQAPRLLIYFASNRATGIPARFSGSGSGTDFTLTISSLEPEDFAVYYCQQSITWPFTFGQGTKVEIK
notes: mammalian-expressed Fab supernatant (huG1 Fab and human kappa vectors); also called PSMM56
With B4 the Geo-MFI [1] was 226, the Geo-MFI [2] was 180 and the Geo-MFI [3] was 17.2.

B5: PSMB51 (Fab, V domains shown)
VH: QVQLVQSGAEVKKPGSSVKVSCKASGGTFSSYAISWVRQAPGQGLEWMGWIIPYNGNANYAQKFQGRVTITADESTSTAYMELSSLRSEDTAVYYCARVNSAALVWERLDYWGQGTLVTVSS
VL: DIQMTQSPSSLSASVGDRVTITCRASQSIDRWLNWYQQKPGKAPKLLIYAASSLQSGVPSRFSGSGSGTDFTLTISSLQPEDFATYYCQQSPRYPLTFGQGTKVEIK
notes: mammalian-expressed Fab supernatant (huG1 Fab and human kappa vectors); also called PSMM52
In the case of B5, the Geo-MFI [1] is reported as 285, the Geo-MFI [2] is reported as 231 and the Geo-MFI [3] is reported as 41.5.

B6: PSMB109 (Fab, V domains shown)
VH: QVQLVQSGAEVKKPGSSVKVSCKASGGTFSSYAISWVRQAPGQGLEWMGWISPYNGNANYAQKFQGRVTITADESTSTAYMELSSLRSEDTAVYYCARVNSAALVWERLDYWGQGTLVTVSS
VL: DIQMTQSPSSLSASVGDRVTITCRASQSIDRWLNWYQQKPGKAPKLLIYAASSLQSGVPSRFSGSGSGTDFTLTISSLQPEDFATYYCQQSPRYPLTFGQGTKVEIK
notes: mammalian-expressed Fab supernatant (huG1 Fab and human kappa vectors); also called PSMM110
Work on B6 yielded a Geo-MFI [1] of 321, a Geo-MFI [2] of 326 and a Geo-MFI [3] of 34.9.

B7: PSMB56 (Fab, V domains shown)
VH: QVQLVQSGAEVKKPGSSVKVSCKASGGTFSSYAISWVRQAPGQGLEWMGWISPYNGNANYAQKFQGRVTITADESTSTAYMELSSLRSEDTAVYYCARDSDRSYNLDYWGQGTLVTVSS
VL: not shown
notes: mammalian-expressed Fab supernatant (huG1 Fab and human kappa vectors); also called PSMM57
Work on B7 yielded a Geo-MFI [1] of 95.6, a Geo-MFI [2] of 34.7 and a Geo-MFI [3] of 24.5.

B8: PSMB58 (Fab, V domains shown)
VH: EVQLVQSGAEVKKPGESLKISCKGSGYSFTSYWISWVRQMPGKGLEWMGIIYPGDSYTRYSPSFQGQVTISADKSISTAYLQWSSLKASDTAMYYCARDYEWELFDSRLDYWGQGTLVTVSS
VL: not shown
notes: mammalian-expressed Fab supernatant (huG1 Fab and human kappa vectors); also called PSMM59
For B8, the Geo-MFI [1] was 121, the Geo-MFI [2] was 192 and the Geo-MFI [3] was 25.3.

B9: C3CB11 (bispecific antibody, IgG4, V domains shown)
VH 1: QVQLVESGGGVVQPGRSLRLSCVASGFTFSSYGMHWVRQAPGKGLEWVAVISYDGSNKYYADSVKGRFTISRDNSKNTLYLQMNSLRAEGTAVYYCAKDFRSFDWLPPDSASYHGMDVWGQGTTVTVSS
VL 1: SYELTQPPSVSVSPGQTASITCSGDKLGDKYACWYQQKPGQSPVLVIYQDGKRPSGIPERFSGSNFGNKATLTISGTQAMDEADYYCQAWDRNTVVFGGGTKLTVL
VH 2: EVQLVESGGGLVQPGGSLRLSCAASGFTFNTYAMNWVRQAPGKGLEWVARIRSKYNNYATYYAASVKGRFTISRDDSKNSLYLQMNSLKTEDTAVYYCARHGNFGNSYVSWFAYWGQGTLVTVSS
VL 2: QTVVTQEPSLTVSPGGTVTLTCRSSTGAVTTSNYANWVQQKPGQAPRGLIGGTNKRAPGTPARFSGSLLGGKAALTLSGVQPEDEAEYYCALWYSNLWVFGGGTKLTVL
B9 was tested, and the “Primary AML Cell Killing EC50” value (Human CD33 full length) was 3.96 nM.

B10: C3CB7 (bispecific antibody, IgG4, V domains shown)
VH 1: QVQLVQSGSELRKPGASVKVSCKASGYTFTNYAMNWVRQAPGQGLEWMGWINTNTGNPTYAQGFTGRFVFSLDTSVSSAYLQISSLKAEDTAMYYCATDRDRGTDYWGQGTLVTVSS
VL 1: QSALTQPASVSGSPGQSITISCTGTSSDVGDYNYVSWYQQHPGKVPKLMIYDVSNRPSGVSNRFSGSMSGNTASLTISGLQAEDEADYYCSSYSSSSALEVFGGGTKLTVL
VH 2: EVQLVESGGGLVQPGGSLRLSCAASGFTFNTYAMNWVRQAPGKGLEWVARIRSKYNNYATYYAASVKGRFTISRDDSKNSLYLQMNSLKTEDTAVYYCARHGNFGNSYVSWFAYWGQGTLVTVSS
VL 2: QTVVTQEPSLTVSPGGTVTLTCRSSTGAVTTSNYANWVQQKPGQAPRGLIGGTNKRAPGTPARFSGSLLGGKAALTLSGVQPEDEAEYYCALWYSNLWVFGGGTKLTVL
For B10, the “Primary AML Cell Killing EC50” value (Human CD33 full length) was 0.332 nM.

B11: C3CB12 (bispecific antibody, IgG4, V domains shown)
VH 1: not shown
VL 1: SYELTQPPSVSVSPGQTASITCSGNKLGAKFASWYQQKPGQSPVLVIYQDNKRPSGIPERFSGSNSGNTATLTISGTQAVDEADYYCQAWDSSTVVFGGGTKLTVL
VH 2: EVQLVESGGGLVQPGGSLRLSCAASGFTFNTYAMNWVRQAPGKGLEWVARIRSKYNNYATYYAASVKGRFTISRDDSKNSLYLQMNSLKTEDTAVYYCARHGNFGNSYVSWFAYWGQGTLVTVSS
VL 2: QTVVTQEPSLTVSPGGTVTLTCRSSTGAVTTSNYANWVQQKPGQAPRGLIGGTNKRAPGTPARFSGSLLGGKAALTLSGVQPEDEAEYYCALWYSNLWVFGGGTKLTVL
With B11 the “Primary AML Cell Killing EC50” value (Human CD33 full length) was 2.63 nM.
